# ± gives the standard deviation of the averaged measurements.
# What was measured:
# MCF7 = experiment: percentage of EdU-negative (G0-arrested) nuclei per well, 72 h; higher = more G0 arrest; conditions: reference: sequence is the full UniProt precursor, the tested protein was the secreted form or ectodomain
# hTERT-HMEC = experiment: as above; conditions: reference: sequence is the full UniProt precursor, the tested protein was the secreted form or ectodomain
# [1] = protein concentration 0.0225 µM
# [2] = protein concentration 0.018725 µM
# [3] = protein concentration 0.18725 µM
# [4] = protein concentration 0.02382 µM
# [5] = protein concentration 0.03125 µM
# [6] = protein concentration 0.2382 µM
# [7] = protein concentration 0.3125 µM
# 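Further: secreted proteins added to cultured cells, EdU pulse at the end, nuclei found by Hoechst imaging, EdU status from nuclear versus surrounding ring intensity ratio, PBS as neutral control.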
Sequence,percentage of EdU-negative (MCF7; [1]),percentage of EdU-negative (MCF7; protein concentration 0.225 µM),percentage of EdU-negative (hTERT-HMEC; [1]),percentage of EdU-negative (hTERT-HMEC; protein concentration 0.225 µM),other results
MQPPRERLVVTGRAGWMGMGRGAGRSALGFWPTLAFLLCSFPAATSPCKILKCNSEFWSATSGSHAPASDDTPEFCAALRSYALCTRRTARTCRGDLAYHSAVHGIEDLMSQHNCSKDGPTSQPRLRTLPPAGDSQERSDSPEICHYEKSFHKHSATPNYTHCGLFGDPHLRTFTDRFQTCKVQGAWPLIDNNYLNVQVTNTPVLPGSAATATSKLTIIFKNFQECVDQKVYQAEMDELPAAFVDGSKNGGDKHGANSLKITEKVSGQHVEIQAKYIGTTIVVRQVGRYLTFAVRMPEEVVNAVEDWDSQGLYLCLRGCPLNQQIDFQAFHTNAEGTGARRLAAASPAPTAPETFPYETAVAKCKEKLPVEDLYYQACVFDLLTTGDVNFTLAAYYALEDVKMLHSNKDKLHLYERTRDLPGRAAAGLPLAPRPLLGALVPLLALLPVFC [Q96B86],25.3 ± 1.1%,26.4 ± 2%,5.15 ± 0.82%,6.53 ± 1.7%,–
MQPRRQRLPAPWSGPRGPRPTAPLLALLLLLAPVAAPAGSGDPDDPGQPQDAGVPRRLLQQAARAALHFFNFRSGSPSALRVLAEVQEGRAWINPKEGCKVHVVFSTERYNPESLLQEGEGRLGKCSARVFFKNQKPRPTINVTCTRLIEKKKRQQEDYLLYKQMKQLKNPLEIVSIPDNHGHIDPSLRLIWDLAFLGSSYVMWEMTTQVSHYYLAQLTSVRQWKTNDDTIDFDYTVLLHELSTQEIIPCRIHLVWYPGKPLKVKYHCQELQTPEEASGTEEGSAVVPTELSNF,24.2 ± 1.8%,28 ± 0.37%,5.08 ± 0.6%,4.8 ± 0.36%,–
MQPRTPLVLCVLLSQVLLLTSAEDLDCTPGFQQKVFHINQPAEFIEDQSILNLTFSDCKGNDKLRYEVSSPYFKVNSDGGLVALRNITAVGKTLFVHARTPHAEDMAELVIVGGKDIQGSLQDIFKFARTSPVPRQKRSIVVSPILIPENQRQPFPRDVGKVVDSDRPERSKFRLTGKGVDQEPKGIFRINENTGSVSVTRTLDREVIAVYQLFVETTDVNGKTLEGPVPLEVIVIDQNDNRPIFREGPYIGHVMEGSPTGTTVMRMTAFDADDPATDNALLRYNIRQQTPDKPSPNMFYIDPEKGDIVTVVSPALLDRETLENPKYELIIEAQDMAGLDVGLTGTATATIMIDDKNDHSPKFTKKEFQATVEEGAVGVIVNLTVEDKDDPTTGAWRAAYTIINGNPGQSFEIHTNPQTNEGMLSVVKPLDYEISAFHTLLIKVENEDPLVPDVSYGPSSTATVHITVLDVNEGPVFYPDPMMVTRQEDLSVGSVLLTVNATDPDSLQHQTIRYSVYKDPAGWLNINPINGTVDTTAVLDRESPFVDNSVYTALFLAIDSGNPPATGTGTLLITLEDVNDNAPFIYPTVAEVCDDAKNLSVVILGASDKDLHPNTDPFKFEIHKQAVPDKVWKISKINNTHALVSLLQNLNKANYNLPIMVTDSGKPPMTNITDLRVQVCSCRNSKVDCNAAGALRFSLPSVLLLSLFSLACL,24.7 ± 1.2%,27.1 ± 0.61%,4.14 ± 0.25%,9.2557 ± 0.0081%,–
MQPTGREGSRALSRRYLRRLLLLLLLLLLRQPVTRAETTPGAPRALSTLGSPSLFTTPGVPSALTTPGLTTPGTPKTLDLRGRAQALMRSFPLVDGHNDLPQVLRQRYKNVLQDVNLRNFSHGQTSLDRLRDGLVGAQFWSASVSCQSQDQTAVRLALEQIDLIHRMCASYSELELVTSAEGLNSSQKLACLIGVEGGHSLDSSLSVLRSFYVLGVRYLTLTFTCSTPWAESSTKFRHHMYTNVSGLTSFGEKVVEELNRLGMMIDLSYASDTLIRRVLEVSQAPVIFSHSAARAVCDNLLNVPDDILQLLKKNGGIVMVTLSMGVLQCNLLANVSTVADHFDHIRAVIGSEFIGIGGNYDGTGRFPQGLEDVSTYPVLIEELLSRSWSEEELQGVLRGNLLRVFRQVEKVREESRAQSPVEAEFPYGQLSTSCHSHLVPQNGHQATHLEVTKQPTNRVPWRSSNASPYLVPGLVAAATIPTFTQWLC [Q9H4B8],26.5 ± 1.8%,27.6 ± 3%,5.33 ± 1.2%,5.49 ± 1.1%,–
MQQPFNYPYPQIYWVDSSASSPWAPPGTVLPCPTSVPRRPGQRRPPPPPPPPPLPPPPPPPPLPPLPLPPLKKRGNHSTGLCLLVMFFMVLVALVGLGLGMFQLFHLQKELAELRESTSQMHTASSLEKQIGHPSPPPEKKELRKVAHLTGKSNSRSMPLEWEDTYGIVLLSGVKYKKGGLVINETGLYFVYSKVYFRGQSCNNLPLSHKVYMRNSKYPQDLVMMEGKMMSYCTTGQMWARSSYLGAVFNLTSADHLYVNVSELSLVNFEESQTFFGLYKL,25.2 ± 0.97%,29 ± 2.4%,4.44 ± 0.26%,7.46 ± 2.2%,–
MQRGAALCLRLWLCLGLLDGLVSGYSMTPPTLNITEESHVIDTGDSLSISCRGQHPLEWAWPGAQEAPATGDKDSEDTGVVRDCEGTDARPYCKVLLLHEVHANDTGSYVCYYKYIKARIEGTTAASSYVFVRDFEQPFINKPDTLLVNRKDAMWVPCLVSIPGLNVTLRSQSSVLWPDGQEVVWDDRRGMLVSTPLLHDALYLQCETTWGDQDFLSNPFLVHITGNELYDIQLLPRKSLELLVGEKLVLNCTVWAEFNSGVTFDWDYPGKQAERGKWVPERRSQQTHTELSSILTIHNVSQHDLGSYVCKANNGIQRFRESTEVIVHENPFISVEWLKGPILEATAGDELVKLPVKLAAYPPPEFQWYKDGKALSGRHSPHALVLKEVTEASTGTYTLALWNSAAGLRRNISLELVVNVPPQIHEKEASSPSIYSRHSRQALTCTAYGVPLPLSIQWHWRPWTPCKMFAQRSLRRRQQQDLMPQCRDWRAVTTQDAVNPIESLDTWTEFVEGKNKTVSKLVIQNANVSAMYKCVVSNKVGQDERLIYFYVTTIPDGFTIESKPSEELLEGQPVLLSCQADSYKYEHLRWYRLNLSTLHDAHGNPLLLDCKNVHLFATPLAASLEEVAPGARHATLSLSIPRVAPEHEGHYVCEVQDRRSHDKHCHKKYLSVQALEAPRLTQNLTDLLVNVSDSLEMQCLVAGAHAPSIVWYKDERLLEEKSGVDLADSNQKLSIQRVREEDAGRYLCSVCNAKGCVNSSASVAVEGSEDKGSMEIVILVGTGVIAVFFWVLLLLIFCNMRRPAHADIKTGYLSIIMDPGEVPLEEQCEYLSYDASQWEFPRERLHLGRVLGYGAFGKVVEASAFGIHKGSSCDTVAVKMLKEGATASEHRALMSELKILIHIGNHLNVVNLLGACTKPQGPLMVIVEFCKYGNLSNFLRAKRDAFSPCAEKSPEQRGRFRAMVELARLDRRRPGSSDRVLFARFSKTEGGARRASPDQEAEDLWLSPLTMEDLVCYSFQVARGMEFLASRKCIHRDLAARNILLSESDVVKICDFGLARDIYKDPDYVRKGSARLPLKWMAPESIFDKVYTTQSDVWSFGVLLWEIFSLGASPYPGVQINEEFCQRLRDGTRMRAPELATPAIRRIMLNCWSGDPKARPAFSELVEILGDLLQGRGLQEEEEVCMAPRSSQSSEEGSFSQVSTMALHIAQADAEDSPPSLQRHSLAARYYNWVSFPGCLARGAETRGSSRMKTFEEFPMTPTTYKGSVDNQTDSGMVLASEEFEQIESRHRQESGFSCKGPGQNVAVTRAHPDSQGRRRRPERGARGGQVFYNSEYGELSEPSEEDHCSPSARVTFFTDNSY,–,–,–,–,percentage of EdU-negative (MCF7; [2]): 25.2 ± 1.4%; percentage of EdU-negative (MCF7; [3]): 25.66 ± 0.24%; percentage of EdU-negative (hTERT-HMEC; [2]): 5.19 ± 0.73%; percentage of EdU-negative (hTERT-HMEC; [3]): 6.63 ± 1.2%
MQRLCVYVLIFALALAAFSEASWKPRSQQPDAPLGTGANRDLELPWLEQQGPASHHRRQLGPQGPPHLVADPSKKQGPWLEEEEEAYGWMDFGRRSAEDEN,–,–,–,–,percentage of EdU-negative (MCF7; [4]): 24.94 ± 0.082%; percentage of EdU-negative (MCF7; [5]): 29.3 ± 0.76%; percentage of EdU-negative (MCF7; [6]): 27.1 ± 1.1%; percentage of EdU-negative (MCF7; [7]): 26.7 ± 1.6%; percentage of EdU-negative (hTERT-HMEC; [4]): 4.78 ± 0.41%; percentage of EdU-negative (hTERT-HMEC; [5]): 4.9 ± 0.48%; percentage of EdU-negative (hTERT-HMEC; [6]): 7.18 ± 0.61%; percentage of EdU-negative (hTERT-HMEC; [7]): 10.5 ± 2%
MQRLRWLRDWKSSGRGLTAAKEPGARSSPLQAMRILQLILLALATGLVGGETRIIKGFECKPHSQPWQAALFEKTRLLCGATLIAPRWLLTAAHCLKPRYIVHLGQHNLQKEEGCEQTRTATESFPHPGFNNSLPNKDHRNDIMLVKMASPVSITWAVRPLTLSSRCVTAGTSCLISGWGSTSSPQLRLPHTLRCANITIIEHQKCENAYPGNITDTMVCASVQEGGKDSCQGDSGGPLVCNQSLQGIISWGQDPCAITRKPGVYTKVCKYVDWIQETMKNN [Q9UBX7],27.509 ± 0.019%,25.5 ± 1.5%,5.31 ± 0.64%,6.15 ± 0.74%,–
MQRVSGLLSWTLSRVLWLSGLSEPGAARQPRIMEEKALEVYDLIRTIRDPEKPNTLEELEVVSESCVEVQEINEEEYLVIIRFTPTVPHCSLATLIGLCLRVKLQRCLPFKHKLEIYISEGTHSTEEDINKQINDKERVAAAMENPNLREIVEQCVLEPD [Q9H5X1],24.6 ± 0.36%,26.4 ± 0.66%,5.26 ± 0.84%,5.56 ± 0.12%,–

# Reference: the supplement of paper PMC11316812
